Target: Prostate-Specific Membrane Antigen (PSMA), as expressed on LNCaP cells (human, UniProt Q04609 1-750)
Experiment: cell-based or functional assay

Chain of Prostate-Specific Membrane Antigen (PSMA), as expressed on LNCaP cells (Q04609 whole entry): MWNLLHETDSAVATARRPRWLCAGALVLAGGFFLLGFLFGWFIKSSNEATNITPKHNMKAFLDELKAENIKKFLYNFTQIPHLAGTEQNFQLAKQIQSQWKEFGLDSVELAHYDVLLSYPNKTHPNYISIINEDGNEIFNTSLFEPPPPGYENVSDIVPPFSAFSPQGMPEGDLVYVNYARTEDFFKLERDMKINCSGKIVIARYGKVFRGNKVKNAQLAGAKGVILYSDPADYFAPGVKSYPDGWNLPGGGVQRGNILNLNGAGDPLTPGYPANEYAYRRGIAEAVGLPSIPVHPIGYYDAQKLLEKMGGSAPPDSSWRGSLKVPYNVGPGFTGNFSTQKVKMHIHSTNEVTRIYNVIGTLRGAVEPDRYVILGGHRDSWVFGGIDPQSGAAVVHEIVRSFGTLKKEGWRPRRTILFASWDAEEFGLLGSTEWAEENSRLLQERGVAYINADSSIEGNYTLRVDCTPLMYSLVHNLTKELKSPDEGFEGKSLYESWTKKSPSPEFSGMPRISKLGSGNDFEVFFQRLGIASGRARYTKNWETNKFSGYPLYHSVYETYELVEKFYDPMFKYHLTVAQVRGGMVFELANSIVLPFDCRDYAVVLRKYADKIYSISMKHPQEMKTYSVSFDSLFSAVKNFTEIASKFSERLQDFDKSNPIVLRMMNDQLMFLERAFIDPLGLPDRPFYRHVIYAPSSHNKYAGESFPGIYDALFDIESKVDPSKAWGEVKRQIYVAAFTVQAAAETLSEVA

Row | Binder | EC50 (µg/mL), in vitro cytotoxicity on LNCaP cells (Alamar Blue cell survival, 4-day incubation) [µg/mL]
1 | HAKA-A (ADC of J415RHA+J415RKA anti-PSMA antibody conjugated to drug linker A) (antibody, V domains shown, PBD drug linker A conjugated to reduced cysteine thiols (positions not stated); measured DAR 1.17 per antibody) VH: EVQLVESGGGLVQPGGSLKLSCAASGFTFSNYWMNWVRQASGKGLEWVGEIRSQSNNFATHYAESVKGRFTISRDDSKNTAYLQMNSLKTEDTAVYYCTRRWNNFWGQGTTVTVSS VL: DIQMTQSPSSVSASVGDRVTITCKASENVGTYVSWYQQKPGTAPKLLIYGASNRFTGVPSRFSGSGSATDFTLTINNLQPEDFATYYCGQSYTFPYTFGQGTKVEIK | 0.00186
2 | HAKB-A (ADC of J415RHA+J415RKB anti-PSMA antibody conjugated to drug linker A) (antibody, V domains shown, PBD drug linker A conjugated to reduced cysteine thiols (positions not stated); measured DAR 1.86 per antibody) VH: EVQLVESGGGLVQPGGSLKLSCAASGFTFSNYWMNWVRQASGKGLEWVGEIRSQSNNFATHYAESVKGRFTISRDDSKNTAYLQMNSLKTEDTAVYYCTRRWNNFWGQGTTVTVSS VL: DIQMTQSPSSVSASVGDRVTITCKASENVGTYVSWYQQKPGTAPKLLIYGASNRFTGVPSRFSGSGSATDFTLTINNLQPEDFATYYCGQSYTFPYTFGQGTKVEIK | 0.00163

Reference: patent US20210137940A1 (AstraZeneca / MedImmune, published 2021)
